Reference: the nanobody polyreactivity screen of Harvey et al. (2022)

Assay: yeast display, Sf9 membrane polyspecificity reagent, FACS + sequencing; frameworks hold sequencing errors
Method in brief: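 A nanobody's polyreactivity label depends on the gate it was sorted from. Yeast display cells were stained with 10% biotinylated, detergent-solubilized Sf9 membrane reagent for 1 hour at 4 °C, enriched on streptavidin microbeads and sorted by FACS. The low and high (top ~1%) gates were set on anti-HA fluorescence for expression and streptavidin fluorescence for reagent binding.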

Sequence | polyreactivity (PSR sort gate)
QFQLVESGGGLVQAGASLRLSCAASGSIFDLNALGWYRQAPGKDRELVAAITRDSGITYYADSVKGRFKISRDNAKNTVYLQMNSLKPEDTAVYYCAADADSSSGDSWGQGTQVTVSS | low polyreactivity
QFQLVESGGGLVQAGGILRLSCADSGSTFRWYAMGWYRKAPGKERELVASITYSGASTYYADSVKGRFTISRDNAKNTVYLQMISLKPEDTAVYYCNAVFWFSYVSEYDYWGQGTQVTVSS | high polyreactivity
QFQLVESGGGLVQAGGRLRLSCAASGSIFYRNAMGWYRQAPGKERELVAAISASGGSTYYADSVKGRFTISRDNEKNTVYLQMIILKPEDTAVYYCDVEYRKSRSYAPMGYWGQGTQVTVSS | high polyreactivity
QFQLVESGGGLVQAGGSLRISCAASGSTFVLNAMGWYRQAPGKDREWVAAISQSDYSTYYSDSVKGRFTISRDNAKNTVYLQMNSLKPEDTAVYYSAREYAHLSFLSTSSDYWGQGTQVTVSS | low polyreactivity
QFQLVESGGGLVQAGGSLRLRCAATGSNFYVYALGWYRQAPGKETELVAAIRRTGSSTYYADSVKGRFTMSRDNAKNTDYLQMNSLKPEDTAVYYCAARYWRARAGSYDYWGQGTQVTVSS | high polyreactivity
QFQLVESGGGLVQAGGSLRLSCAASGFIFGGNVMGWYRQAPGKERELVAAITSSATTYYADSVKGRFTISRDNAKNTVYLQMNSLKREDTAVYYCAADTWTIVDYGYWGQGTQVTVSS | low polyreactivity
QFQLVESGGGLVQAGGSLRLSCAASGFIFGYNAMGWYRQAPGKERELVAPITYNGASTNYADSVKGRFTISRDNAKNTVYLQMNSLKPEDTAVYYCAADYGPYDPEDDWGQGTQVTVSS | low polyreactivity
QFQLVESGGGLVQAGGSLRLSCAASGFIFKPYTMGWYRQAPGKERELVATITFSGGSTYYADSVKGRFTISLDNAQNTVYLQMNSLNPEDTAVYYCADPRYYRGYSIFDYLGQGTQVTVSS | low polyreactivity
QFQLVESGGGLVQAGGSLRLSCAASGFIFSTYTMGWYRQAPGKERELVAAISSGGGTYYADSVKGRFTISRDNAKNTVYLQMNSLKPEDTAVYYCAALVYSSYPAGWYDYWGQGTQVTVSS | high polyreactivity
QFQLVESGGGLVQAGGSLRLSCAASGFIFYKYAMGWYRQAPGKERELVAAISSIGGRTYYADSVKGRFTISRDNAKNTVYLQMNSLKPEDTAVYYCAARYRRTIPWFAPGNDHKYWGQGTQVTVSS | high polyreactivity
QFQLVESGGGLVQAGGSLRLSCAASGFILWTYAMGWYRQAPGKERELVAAISTTGGSTYYADSVKGRFTISRDNAKNTVYCQMNSLKPEDTAVYYCAAQVGRGYEVYPVYKYGYWGQGTQVTVSS | high polyreactivity
QFQLVESGGGLVQAGGSLRLSCAASGFTFDDYDMGWYRQAPGKERELVAAISWSGGSTYYADSVKGRFTISRDNSKNTVYLQMNSLKPEDTAVYYCAAERSYGGFDYWGQGTQVSVSS | low polyreactivity
QFQLVESGGGLVQAGGSLRLSCAASGFTISWNTMGWYRQAPRKERELVATISGSGGRTYYADSVKGRFTISRDNAKNTVYFQMNSMKPEDTAVYYCAARYVLGGQGTSRRVRGGYWGQGTQLTVSS | high polyreactivity
QFQLVESGGGLVQAGGSLRLSCAASGFTLRTYAMGWYRQAPGKERELVAAITVSGGTYYADSVKGRFTISRDNAKYTVYLQMNSLKPEDTAVYYCTAKRFGTGFDYWGQGTQVTVSS | low polyreactivity
QFQLVESGGGLVQAGGSLRLSCAASGIIFAQYTMGWYRQAPGKDRELGAAINRNGGSTYYADSVKGRFTISRDNAKNTVYLQMNSLKPEDTAVYYCIADALGFRYDYWGQGTQVTVSS | low polyreactivity
QFQLVESGGGLVQAGGSLRLSCAASGIIFHIYAMGWYRQAPGKERELVAAISTGSSTYYADSVKGRFTISRDNAKNTVYLQMNSLKPEDTSVSYCNAVSRYLWVKGFDYWGQGTQVTVSS | low polyreactivity
QFQLVESGGGLVQAGGSLRLSCAASGITFKTYAMGCYRQAPGKERELFATINRGSRTNYADSVKGRFTISRDNAKNTVYLQMNSLKPEDTAVYYCAAHYTTFIPSPDGDYLGQGTQVTVSS | low polyreactivity
QFQLVESGGGLVQAGGSLRLSCAASGITFRDYAMGWYRQAPGKERELVAAISTRGVRTYYADSVKGRFTISRDNAKNTVYLQMNSLKPEDTAVYYCAARSVTYWWVGYEFYYWGQGTQVTVSS | high polyreactivity
QFQLVESGGGLVQAGGSLRLSCAASGITIRWYAMGWYRQAPGKERELVAGISSRGDSTYYADSVKGRFTISRDNAKNTVYLQMNSLKREDTAVYYCAAPGSSYRGRGYDYWGQGTQVTVSS | high polyreactivity
QFQLVESGGGLVQAGGSLRLSCAASGLIFRHYVMGWYRQAPGKERELVAAITSRGGTTYYADSVKGRFTISRDNEKNTVYLQMNIMKPEDTAVYYCNAVDIDPTRYEYDYWGQVTQVTVSS | high polyreactivity
QFQLVESGGGLVQAGGSLRLSCAASGLIFVGNPMGWYRQAPGKERELVAAISSRGGRTYYADSVKGRFTISRDNAKNTVYLQMNSLKPEDTAVYYCIAANSQWGFEYWGQGTQVTVSS | high polyreactivity
QFQLVESGGGLVQAGGSLRLSCAASGLTFSRYAMGWYIQAPGKERELVAAITCSGSSTYYSHSVKGRFTISRDNAKNNVYLQMNSLKPEDTAVYYCAARYGYSRGTYYRSDYWGQGTQVTVSS | high polyreactivity

Sequence | polyreactivity (PSR sort gate)
QFQLVESGGGLVQAGGSLRLSCAASGNILPAYAMGLYRQAPGKERELVAAISKSGGRTYYADSVKGRFTISLDNAKNTVYLQMNSLKPEDTAVYYALLTVLRAVPYTVRYDYWGQGTQVNVSS | high polyreactivity
QFQLVESGGGLVQAGGSLRLSCAASGRIFDLNAMGWYRQAPGKERELVAAITWSGDSTYYADSVKGRITISRDNAKNTVYLQLNSLKPEDTAVYYCAAASRTSYSWVDYEFDYWGQGTQVTVSS | low polyreactivity
QFQLVESGGGLVQAGGSLRLSCAASGRIFKPNAMGWYRQAPGKERELVAAIRYSTGRTYYADSVKGRFTISRDNAKNTVYLQMNSLKPEDTAVYYCAARRVEYYGSQNGYWGQGTQVTVSS | high polyreactivity
QFQLVESGGGLVQAGGSLRLSCAASGRIFVLNAMGWYRQAPGKERELVAAISGSGSRTYYADSVKGRFTISRDNAKNTVYLQMNSLNPEDTAVYYCNNVSRRSEHTYDYWGQGTQVTVSS | high polyreactivity
QFQLVESGGGLVQAGGSLRLSCAASGRIFVYYMGWYRQAPRKERELVAALSFGGGSTYYADSVKGRFTISRDNAKNTVYLQMNSLKPEDNAVYYCNADGDDLDWNYYLVQYDYWGQGTQVTVSS | low polyreactivity
QFQLVESGGGLVQAGGSLRLSCAASGRIFYRYAMGWYIQAPGKERELVAAITSGTSTNYADSVKGRFTISRDNAKNTVYVQMNSLKPEDTAVYYCAKRYYWKYAEYDYWGQGTLVTVSS | high polyreactivity
QFQLVESGGGLVQAGGSLRLSCAASGRIFYYNAMGWYRQAPGKERELVASITGSGGSTYYADSVKGRFTISRDNAKNTVYLQMNSLKPEDTAVYYCAKREYLYPYYYVAKYDYWGQGTQVTVSS | low polyreactivity
QFQLVESGGGLVQAGGSLRLSCAASGRTFGFNAMGWYRQAPGKERELVAALSGSGGRTYYADSVQGRFTISRDNAKNTVYLQMNSLKPEDTAVYYCAAGARRGGSGDWGQGTQVTVSS | high polyreactivity
QFQLVESGGGLVQAGGSLRLSCAASGRTFPWYAMGWYRQEPGKDRELVAAISWTGGSTYYADSVKGRFTISRDNAKNTVYLQMNSLKPEDTAFYYCAASPWYLKYEYWGQGTQVTVSW | low polyreactivity
QFQLVESGGGLVQAGGSLRLSCAASGRTFRGYAMGWYRQAPGKERELVAAITWRGGSTYYADSVKGRFTISRDNAKNTVYLQMNSLKPEDTAVYYCNTLVWSYLGGYYSRFDYWGQGTQVTVSS | high polyreactivity
QFQLVESGGGLVQAGGSLRLSCAASGRTFRYYAMGGYIQAPGKERELVGAITTGSSTYYADSVKGRFTISRDNAKNTVYLQMNSLKTEDTAVYYCHVFQGTRYGYWGQGTKVTVSS | low polyreactivity
QFQLVESGGGLVQAGGSLRLSCAASGRTFRYYTMGWYRQAPGKEREFVAVITVNGGSTYYADSVKGRFTISRDNAKNTVYLQMNSLKPEDTAVYYCAKSYGSRHRYWPLYYWGQGTQVTVSS | high polyreactivity
QFQLVESGGGLVQAGGSLRLSCAASGRTFVPYVMGWYRQAPGKERELVASITSGGSTYYADSVKGRFTISRDNAKNTVYLQMNSLNPEDTAVYYCATRQSAERWGYYYWGQGTQVTVSS | low polyreactivity
QFQLVESGGGLVQAGGSLRLSCAASGRTFYVNAMGWYRPSPGKERELVAGISFSDGSTYYADSVKGRFTISRDNAKNTVYLQMNSLKPEDTAVYYCATVGAFDIYYGYGYWGQGTQVTVSS | low polyreactivity
QFQLVESGGGLVQAGGSLRLSCAASGRTFYYYVMGWYRQAPGKERELVAAITIRGGSTYYADSVKGRFTISRDNAKNTVYLQMNSLKPEDTAVYYCNARGGSSTYGNYYWGQGTQVTVSS | low polyreactivity
QFQLVESGGGLVQAGGSLRLSCAASGSIFDAYAMGWYRQAPGKERELVPAITYSGGSTYYADSVKGRFTISRDNAKNTVYLQMNSLKPEDTAVYYCNTDSRVRTWFRAFTFDSWGQGTQVTVSS | low polyreactivity
QFQLVESGGGLVQAGGSLRLSCAASGSIFDRNAMGWYRQAPGKERELVAAITSGGSTYYADSVKGRFTISRDNAKNTVYLQMNSLKPEDNAVYYCNADTDPPVPLYYWGQGTQVTVSS | low polyreactivity
QFQLVESGGGLVQAGGSLRLSCAASGSIFFYYAMGWYRQAPGKERELVAAITFTGGSTYYADSVKGRFTISRDNAKNTVYLQMNSLKPEDTAVYYCADYWYYGDEYVYWGQGTQVTVSS | high polyreactivity
QFQLVESGGGLVQAGGSLRLSCAASGSIFIYYAMGWYRQAPGKEREFVAAITRSGGSTFYADSVKGRFTISRDNAKNTVYLQMNSLKPEDTAVYYCATSYEGYYSIIGNKYDYWGQGTQVTVSS | high polyreactivity
QFQLVESGGGLVQAGGSLRLSCAASGSIFLWYAMGWYRQAPGKERELVAVITSSGGTTYYADSVKGRFTISRDNAKNTVYLQMNCMKPEDNAVYYSAADFYRHPPGSLTKLYYYWGQGTQVTVSS | low polyreactivity
QFQLVESGGGLVQAGGSLRLSCAASGSIFSVYAMGWYRQAPGKERELVAAITNRGGSTYYADSVKGRFTISRDNAKNTVYLQMNSLKPEDTAVYYCARGPVSYGGLYDYWGQGTQVIVSS | low polyreactivity
